The values below come from patent publication US20230094597A1, “COMPOSITIONS AND METHODS FOR TREATING DISORDERS CHARACTERIZED WITH EXCESSIVE OSTEOCLAST ACTIVITY” (THE JOHNS HOPKINS UNIVERSITY, priority 2021, published 2023).

One experiment relates to Siglec15. Kind of experiment: Siglec15 expression in BMMs (flow cytometry, immunostaining). The class given is cell-based, mouse. On the procedure: To understand the detailed mechanism of Siglec15 regulating osteoclast formation, we incubated WT BMMs with biotinylated Siglec15 monoclonal antibody and manually separated Siglec15^+ BMMs from Siglec15- BMMs using anti-biotin microbeads and magnetic separators (FIG. 4A). Separated Siglec15* and Siglec15- BMMs were then stimulated with M-CSF and RANKL for osteoclastogenesis. […] One study reported that osteoclast fusion might be initiated by a small subset of progenitors (Levaot et al., 2015); therefore, we combined separated Siglec15^+ BMMs with BMMs isolated from Siglec15^ΔLysM mice in different proportions (1%, 5%, and 10%). […] Immunofluorescent staining confirmed that Siglec15^+ and Siglec15^− BMMs can form multinucleated osteoclasts with normal actin rings, and the expression of Siglec15 was restored in Siglec15^− BMMs during osteoclastogenesis (FIG. 8). […] BMMs cultured with RANKL alone, absent M-CSF, cannot survive during osteoclastogenesis (FIG. 4D, E).
(§1) To explore the molecular mechanism of M-CSF activation of Siglec15, we used U0126, a selective of mitogen-activated protein kinase kinases inhibitor of MEK1 and MEK2. […] To understand Siglec15 transcription, we analyzed the core enhancer of Siglec15 and found three binding sites of MYC with high species […]. Chromatin immunoprecipitation (ChIP) assay was performed to investigate the interaction of MYC with the 3 deoxyribonucleic acid binding sites. […] MYC recognizes and binds to E-box domains with consensus recognition sequence of CACGTG or CATGTG (Guccione et al., 2006). In the 310-bp binding region, we recognized the sequences of TATGTG and AATGTG that share 80% similarities with reported binding bases. To confirm the role of these MYC recognition sequences, we constructed an enhancer reporter with this Siglec15 enhancer, and 3 mutants were derived by site-directed mutagenesis to inactivate the MYC recognition (FIG. 11E). […] Thus, M-CSF activates Siglec15 expression via MEK-ERK-MYC cascade.
Mouse bone specimens were first fixed and then decalcified using 10% EDTA (Sigma-Aldrich, St. Louis, Mo., USA) for 14 days with constant shaking. For the histological assays, the detailed protocols were reported in a previous study (Dou, J. Bone Min. Res. 33, 899-908 (2018)). In short, the samples were then dehydrated and embedded in optimal cutting temperature compound (Sakura Finetek, Torrance, Calif., USA) or in paraffin. Four-μm-thick coronal-oriented femur sections were prepared for TRAP staining. Forty-μm-thick coronal-oriented femur sections were prepared for IF staining. The detailed protocols were described in a previous study study (Dou, J. Bone Min. Res. 33, 899-908 (2018)). Briefly, the sections were incubated with primary antibodies against mouse TLR2 (Santa Cruz Biotechnology, sc-21759, 1:200), Siglec15 (PA5-48221, Thermo Fisher Scientific, 1:100), ST3GAL1 (PA5-21721, Thermo Fisher Scientific, 1:50), and TRAP (Abcam, ab191406, 1:100) for 12 h at 4° C. For sialic acid detection, biotinylated Maackia Amurensis Lectin II (MAL II) (Vector Laboratories, CA, USA) was used to label the α2,3 linkage, and biotinylated Sambucus Nigra Lectin (SNA) (Vector Laboratories, CA, USA) was used to label the α2,6 linkage. Fluorescein-conjugated streptavidin (Vector Laboratories, CA, USA) was used for the addition of a fluorescent label to biotinylated sialic acid conjugates. A Zeiss LSM 780 confocal microscope and an Olympus BX51 microscope were used for image capture.
To sort Siglec15^+ cells, whole bone marrow was collected from mouse femurs and tibias after mice were euthanized with an overdose of inhaled isoflurane. Whole bone marrow cells were also used for culture and induction of BMMs using M-CSF (50 ng mL^−1) for higher Siglec15^+ cell enrichment in further studies. After red blood cell lysis, the cell number was counted, and the same numbers of cells were incubated with a biotinylated mouse Siglec15-specific antibody (PA5-48221, Thermo Fisher Scientific). […]
Background: In flow cytometry, cells or beads pass a laser one at a time.

The test system of a further experiment is WT BMMs. Kind of experiment: In vitro osteoclast differentiation assay (TRAP staining) of BMMs. The class given is cell-based, mouse.
The test system of the next experiment is MEK-ERK-MYC signaling. Kind of experiment: Western blot of ERK, MYC phosphorylation and Siglec15 in BMMs. The class given is cell-based, mouse. On the procedure:
as §1
(§2) For the co-IP assays, cells were first lysed in the presence of protease inhibitors using IP buffer. […] SDS-PAGE was then used to separate the immunoprecipitates before transfer to a nitrocellulose membrane for immunoblotting procedures. […]
A general note: In western blotting, separated proteins are transferred to a membrane and probed.

In the next experiment the test system is St3gal1. Nature of the experiment: St3gal1 transcription under estrogen. The note with it: FIG. 26.
The subject of the next experiment is Siglec15 core enhancer. Nature of the experiment: ChIP-PCR of MYC binding at the Siglec15 core enhancer. Format: cell-based, mouse. The note with it: BMMs, stimulation for 48 h. On the procedure:
For the ChIP assay, primary BMMs were cultured with M-CSF or GM-CSF stimulation for 48 h to detect Siglec15 core enhancer DNA binding. M-CSF-primed cells were induced with RANKL for another 72 h to detect St3 gal1 core enhancer DNA binding. Afterward, the cells were cross-linked using 1% formaldehyde and lysed. DNA fragmentation was then achieved by enzymatic digestion with micrococcal nuclease (MNase). After digestion, 10% of the sample was preserved as the total input aliquot for further use. The remaining supernatant was then incubated with a ChIP-grade primary antibody against mouse p-CREB (Abcam, ab32096, 10 μg), c-FOS (Abcam, ab27793, 10 μg), or c-MYC (Abcam, ab9132, 10 μg). An anti-RNA Polymerase II antibody was used as the positive IP control, and normal rabbit IgG was used as the negative IP control. […] After elution, the DNA was then purified and recovered according to the manufacturer's instructions, and PCR detection was performed. The PCR primers used to detect MYC binding were as follows: Site #1, forward: [NT] ID NO: 1), and reverse: [NT] ID NO: 2); Site #2, forward: [NT] ID NO: 3), and reverse: [NT] ID NO: 4); and Site #3, forward: [NT] ID NO: 5), and reverse: [NT] ID NO: 6). The PCR primers used to detect FOS binding were as follows: forward: [NT] ID NO: 7), and reverse: [NT] ID NO: 8). The PCR primers used to detect CREB binding were as follows: forward: [NT] […]

In experiment [1] the test system is TLR2. Nature of the experiment: Immunostaining of α2,3 and α2,6 sialic acid in WT BMMs. The class given is cell-based, mouse. On the procedure:
Because TLR2 has 4 N-linked glycosylation sites (Weber et al., 2004), to investigate the molecular mechanism of sialylation we tested α2,3 and α2,6 N-Linked SA modification, the two most common sialylation pattern in mammalian cells. […] To understand why α2,3 was sialylated, we examined each member expression profile of the entire sialyltransferase family. […] Moreover, α2,3 SA was immunocolocalized with TLR2, not with Siglec15 in WT and Siglec15^ΔLysM BMMs after RANKL stimulation for 24 h (FIGS. 16C, D).
Mouse bone specimens were first fixed and then decalcified using 10% EDTA (Sigma-Aldrich, St. Louis, Mo., USA) for 14 days with constant shaking. For the histological assays, the detailed protocols were reported in a previous study (Dou, J. Bone Min. Res. 33, 899-908 (2018)). In short, the samples were then dehydrated and embedded in optimal cutting temperature compound (Sakura Finetek, Torrance, Calif., USA) or in paraffin. Four-μm-thick coronal-oriented femur sections were prepared for TRAP staining. Forty-μm-thick coronal-oriented femur sections were prepared for IF staining. The detailed protocols were described in a previous study study (Dou, J. Bone Min. Res. 33, 899-908 (2018)). […]

Another experiment deals with Siglec15-DAP12. Nature of the experiment: Co-IP of Siglec15 with DAP12 and DAP12 tyrosine phosphorylation in BMMs. The class given is cell-based, mouse. As to conditions: BMMs induced with RANKL, sialidase or both. On the procedure:
To examine whether Siglec15 downstream signaling is activated by binding to sialylated TLR2, co-IP of Siglec15 with DAP12, a key factor for cell fusion, was conducted in BMMs induced with RANKL, sialidase or both. […] Moreover, tyrosine phosphorylation of DAP12 was detected in the co-IP experiment upon RANKL induction of Siglec15 clustering but was again impaired by sialidase treatment (FIG. 28d). We then tested whether TLR2 signaling is activated by binding to Siglec15. The recruitment of MyD88 to TLR2 was examined by co-IP. […] Removal of SA by sialidase reduced MyD88 recruitment and NFATc1 activation (FIG. 28e). […] Cell-cell fusion is a fundamental cellular activity of macrophages, and multinucleation is a complex process that is likely involved in multiple signaling pathways. Activation of downstream signaling by both Siglec15 and sialylated TLR2 is involved in different cells simultaneously, and both signaling pathways could also occur in each cell, which could be the critical mechanism for cell fusion.
as §2

The subject of the next experiment is p65. Nature of the experiment: p65 nuclear translocation (immunostaining, western blot) in BMMs. The class given is cell-based, mouse.
The subject of experiment [2] is TLR2. Kind of experiment: ELISA of peptidoglycan-induced cytokine secretion from BMMs. Format: cell-based, mouse. The note with it: RANKL, or RANKL plus sialidase. An excerpt:
To test signaling activity of α2,3 sialylation, we removed α2,3 SA of TLR2 induced by RANKL by adding sialidase in the BMM culture. […] To examine the transcriptional mechanism of ST3Gal1 activation by RANKL, we analyzed 5′ promoter sequence of ST3Gal1 and recognized binding sites for CREB1 and FOS (downstream transcription factors of RANKL signaling) in the core enhancer (FIG. 16E). […] To confirm the functional activity of the FOS site, we constructed an enhancer reporter with ST3Gal1 enhancer and FOS mutant binding sites. […] To validate RANKL-induced sialylation in vivo, we crossed RANKL^ﬂ/ﬂ mice with the Dmp1-Cre strain to generate osteocyte-specific RANKL knockout mice (RANKLΔ^Dmp1). […] Furthermore, the Siglec15-TLR2 co-localization that can be observed in RANKL^ﬂ/ﬂ mice disappeared in RANKL^ΔDmp1 mice (FIG. 19B).
(ELISA stands for enzyme-linked immunosorbent assay.)

Turning to `N#CC(=C(/N)Sc1ccccc1N)/C(C#N)=C(\N)Sc1ccccc1N` [U0126, reference compound], in the experiment with Siglec15 (BMMs, M-CSF+U0126, immunostaining), the “Siglec15 upregulated by M-CSF” value is recorded as “abrogated”. In the experiment on WT BMMs (WT BMMs, U0126 10 μmol·L^-1), the cell survival rate entry is given as “decreases” and the osteoclastogenesis result is on record as “decreases”. Besides, the M-CSF-ERK-MYC-Siglec15 cascade entry in the experiment with MEK-ERK-MYC signaling (M-CSF+U0126, 0-72 h) is “blocked this cascade”.
With estrogen, in the experiment on St3gal1, the “RANKL-activated St3gal1 transcription” value is “inhibits”.
As to “GM-CSF: granulocyte-macrophage CSF, encoded by CSF2”, the “expression of Siglec15” value in the experiment on Siglec15 (BMMs treated with GM-CSF, immunostaining) is on record as “cannot induce”. In the experiment with WT BMMs (BMMs induced with RANKL+GM-CSF), the osteoclastogenesis result was “cannot induce”. For the same molecule, the “binding of MYC with the core enhancer of Siglec15” value in the experiment on Siglec15 core enhancer is “cannot induce”.

B1: RANKL: receptor activator of NF-κappaB ligand (protein, UniProt O14788 140-317, looked up)
Tumor necrosis factor ligand …: IRAEKAMVDGSWLDLAKRSKLEAQPFAHLTINATDIPSGSHKVSLSSWYHDRGWAKISNMTFSNGKLIVNQDGFYYLYANICFRHHETSGDLATEYLQLMVYVTKTSIKIPSSHTLMKGGSTKYWSGNSEFHFYSINVGGFFKLRSGEEISIEVSNPSLLDPDQDATYFGAFKVRDID
Consider B1, for which the “α2,3 sialylation of TLR2” value in the experiment on TLR2 [1] is reported as “robustly induced”. In the experiment on Siglec15-DAP12, the “association of Siglec15 with DAP12” value was “induced the association of Siglec15 with DAP12”. Besides, the p65 nuclear translocation result in the experiment with p65 is “activated”. In addition, in the experiment on TLR2 [2], the “peptidoglycan-induced secretion of IL-6” value is recorded as “inhibited” and the “peptidoglycan-induced secretion of TNF-α” value is “inhibited”.

B2: M-CSF: macrophage colony stimulating factor (protein, UniProt P09603 33-554, looked up)
Macrophage colony-stimulating …: EEVSEYCSHMIGSGHLQSLQRLIDSQMETSCQITFEFVDQEQLKDPVCYLKKAFLLVQDIMEDTMRFRDNTPNAIAIVQLQELSLRLKSCFTKDYEEHDKACVRTFYETPLQLLEKVKNVFNETKNLLDKDWNIFSKNCNNSFAECSSQDVVTKPDCNCLYPKAIPSSDPASVSPHQPLAPSMAPVAGLTWEDSEGTEGSSLLPGEQPLHTVDPGSAKQRPPRSTCQSFEPPETPVVKDSTIGGSPQPRPSVGAFNPGMEDILDSAMGTNWVPEEASGEASEIPVPQGTELSPSRPGGGSMQTEPARPSNFLSASSPLPASAKGQQPADVTGTALPRVGPVRPTGQDWNHTPQKTDHPSALLRDPPEPGSPRISSLRPQGLSNPSTLSAQPQLSRSHSSGSVLPLGELEGRRSTRDRRSPAEPEGGPASEGAARPLPRFNSVPLTDTGHERQSEGSFSPQLQESVFHLLVPSVILVLLAVGGLLFYRWRRRSHQEPQRADSPLEQPEGSPLTQDDRQVELPV
Consider B2, for which, in the experiment on Siglec15 (FCM, after 3 days of stimulation), the “Siglec15 expression in separated Siglec15- BMMs” value is “restored Siglec15 expression”. The “proportion of Siglec15+ BMMs” value with Siglec15 (flow cytometry, Siglec15 ΔLysM mice, M-CSF 3 days) is “no obvious changes”; in the experiment on Siglec15 (flow cytometry, whole bone-marrow cells of Siglec15 fl/fl mice, M-CSF 3 days), “significantly increased”; in the experiment with Siglec15 (immunofluorescent staining, Siglec15 fl/fl mice), “significantly increased”. In the experiment on MEK-ERK-MYC signaling (western blot), the “MYC phosphorylation via ERK activation” value is listed as “phosphorylated the Ser62 of MYC”.
